How the values were obtained:
[1] = target: Atlas GC ectodomain GPL binding pocket mutant R86A (Ancylostoma ceylanicum)
[2] = target: Atlas GC ectodomain fusion loop mutant F136A/F137A (Ancylostoma ceylanicum)
[3] = target: the molecule itself; experiment: SEC-MALS; Superdex 200 (10/300), 293 K, 20 mM tris pH 7.8, 0.15 M NaCl, 5% glycerol, 0.5 mM TCEP; 100 ul at 1.6 to 2.5 mg/ml; self-association (trimer)

“Atlas GC ectodomain GPL binding pocket mutant R86A (domain or fragment)” showed a stoichiometry N [1] of 3.

For “Atlas GC ectodomain fusion loop mutant F136A/F137A (domain or fragment)”, the stoichiometry N [2] was 3.

B1: Atlas GC ectodomain (soluble ectodomain fragment of the phlebovirus GC-like Env of Ancylostoma ceylanicum Atlas virus, polyprotein residues 2330 to 2772) (domain or fragment, UniProt A0A016UZK2 2330-2772, looked up)
chain: CSEVISVTSTEEVCTIQENKETCTFNHATTITLQPLQQQTCLTLNDPEKRPMGMLTVKPDGIKFRCNKKIEFFTRDHQIVSESVHRCHRAGSCHSDECHHVKDTDALPEFSSEANSRPGYTSCSSSCGCITCDGCFFCEPSCLFHRLYAIPTTPTIYSIFYCPSWELEVDAEISLQREDETTTSTIRLLPGRTSTWNNIRFSLIGTIVPQLPILSSAFVTNGRQTSIVKPAYAGQLQSNSVGQLQCPNLEAAKQFECHFSRNLCTCTNALHKVSCTCYDGSVEDHMEALPLPQTSKNFLVFEKDRNIYAKTHVGSALQLHIVAQDLKITTVKHTSHCQVEASDLSGCYSCTSGASLTLSCKSDNGEVLANMKCNEQTHVIRCTESGFINNILLMFDTSEVAADCTAACPGGIVNFTIKGLLAFVNERIISQSYSATDVERNIK
notes: The C-terminal V5 and histidine tags were optionally cleaved with carboxypeptidase A; The atomic model covers residues 2330 to 2769; also called GC trimer; WT
In the case of B1, the “stoichiometry N” value [3] is reported as 3.

From publication PMC9094657, “A bioactive phlebovirus-like envelope protein in a hookworm endogenous virus” (Science Advances, 2022)
